Experimental data taken from article PMC7249126.

Legend:
[1] = target: recombinant CD81 large extracellular loop (CD81-LEL); assay: peptide or protein array; sandwich analysis on a 3-D biochip: CD81-LEL immobilised (300 pg/spot); E2-GFP or VMPs at 1500 ng/mL, 2 h, 37 °C; then Cy3-labelled polyclonal anti-E2 antibodies (1000 ng/mL, 3 h) for detection; 0.01 M PBS pH 7.4 or spiked human blood plasma
[2] = target: recombinant CD81 large extracellular loop (CD81-LEL); assay: peptide or protein array; direct analysis on a 3-D biochip: CD81-LEL covalently immobilised in spots (300 pg/spot) on macroporous P(GMA-co-DEGDMA), blocked with BSA; E2-GFP or VMPs in solution, 0.01 M PBS pH 7.4 (VMPs also in spiked human blood plasma), 2 h, 37 °C; GFP fluorescence read; apparent dissociation constants from adsorption isotherms linearised in double reciprocal coordinates

Substance	decrease in relative signal intensity against free E2 [1]	Kd [2]	decrease in relative signal intensity against free E2 [2]
hepatitis C virus-mimetic particles (HC VMPs): PLA-b-PEG nanoparticles bearing E2-GFP on their surface	45 to 48%	26.3 nM	40%
chimeric protein E2-superfolder GFP (HCV E2 core, 412-645 aa) (domain or fragment)	–	11.6 nM	–
